Test results as given in the supplement of paper PMC12042874.
± gives the uncertainty stated by the source.

Experiment: amyloid nucleation score (Sup35N fusion, yeast selection) (log enrichment); library NNK2; higher = more nucleation; inactive = no reads after selection
Procedure, shortened: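 The nucleation score is a DiMSum log enrichment of output over input reads, centred on the mode score of non-aggregating sequences. Sequences under 100 input reads were excluded, and reads came from Illumina sequencing of plasmid inserts. Psi-negative yeast expressing Sup35N fused to peptides of 20 random codons were induced with 100 μM copper sulfate for 24 hours and grown 7 days at 30°C on medium lacking adenine and uracil. Random libraries had three technical output replicates.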

Row | Substance | amyloid nucleation score
1 | ELLEGYSLKEMYAFPVKWAV | 0.741 ± 0.6
2 | ELLGSLCRNRVGTWTICNMS | 0.52 ± 0.34
3 | ELLGVQFRSRKYAATQNQWP | 2.03 ± 0.19
4 | ELLSYRRSIKYCMGLEEPWA | -0.119 ± 0.49
5 | ELSGGQTLLCRSVYLDVDRV | 3.74 ± 0.064
6 | ELWLYFFL | -1.07 ± 0.34
7 | ELWVSQTTNEFSFVVGHVVC | 0.025 ± 0.5
8 | EMICVYSNFMKWVWSSFQTV | -0.832 ± 0.33
9 | EMSRMASNISRMKVSRASKH | 1.15 ± 0.38
10 | ENFGVVMRWGYIRLLLQANW | inactive
11 | ENGRYHFFKAEHWFCRLMMM | inactive
12 | ENGTLTIYMVAL | 4.39 ± 0.075
13 | ENSLVYI | inactive
14 | EQSNSNPSHKY | inactive
15 | ERDGSIMCSWTVSEHKSCGY | inactive
16 | ERMFNMIALVRRAGGERNRT | 4.43 ± 0.059
17 | ERPWRRQRCAFKVSWVGADL | 0.632 ± 0.19
18 | ERYKCVYDNDRLMSLTSPDL | -0.429 ± 0.29
19 | ERYLCVVDMEIKGRALRKRW | -0.144 ± 0.44
20 | ESDMCFVWSIELVGLMFKLI | -0.979 ± 0.24
21 | ESGCQGNSLKCVLSRCNGWR | 3.45 ± 0.1
22 | ESICAKWFMIDMNSTHWTGF | -0.614 ± 0.41
23 | ESKIACCDMMLW | 5.89 ± 0.062
24 | ESLGEVKGYTSDPMVLVCFE | -0.167 ± 0.23
25 | ESQWYVIDGAPFPTSGVLMS | 0.013 ± 0.35

Row | Substance | amyloid nucleation score
26 | ETSANDLEPNLSVHHSGFSR | 0.078 ± 0.32
27 | EVGVV | 0.622 ± 0.18
28 | EVLRYGAVWMISRLVGLSLP | 0.754 ± 0.31
29 | EVPCWMTRSSMECNVDYWEG | 0.797 ± 0.2
30 | EVSHAIYRWTLEKYCWNCHV | 0.09 ± 0.24
31 | EVTILVGKGERLKRTYCSR | 0.329 ± 0.2
32 | EVVNWSR | -0.367 ± 0.35
33 | EVWYTGYVCLWMYIAWINID | inactive
34 | EWIWM | -0.129 ± 0.43
35 | EWPMPWMFHRCSG | -0.138 ± 0.37
36 | EYFMATE | -0.248 ± 0.35
37 | EYGVAT | 1.17 ± 0.18
38 | EYRSDCMDYLGDVCWCPNIL | inactive
39 | FACLYKTMQQLMGIKMCVKA | 0.277 ± 0.4
40 | FAGYECIE | -0.881 ± 0.37
41 | FAKLKIIGSARKYK | -1.19 ± 0.61
42 | FALREYGYLSSYYFCMGGPT | 3.56 ± 0.094
43 | FASRSCEFCEREY | 3.2 ± 0.085
44 | FASVLLCSIRRALGRVVRPL | 0.144 ± 0.55
45 | FASYRVY | 0.305 ± 1
46 | FAVNDCILCCRRSHWVLPYW | -0.334 ± 0.63
47 | FAVTGFTWYMKIRCASIPLV | 1.65 ± 0.21
48 | FCAMGGPSRGLVNRWFGS | -0.746 ± 0.41
49 | FCGDILSVT | 0.695 ± 0.66
50 | FCGFNDPGRD | inactive

Row | Substance | amyloid nucleation score
51 | FCKSVHKVHGHNVWCTLCAG | 1.11 ± 0.18
52 | FCKYANSGGCNHSMSDAV | -0.761 ± 1.1
53 | FCLNATKAWFVLGVMYLDHW | -0.805 ± 0.35
54 | FCNFGFIRNRSDDIGVSRGV | -1.07 ± 0.47
55 | FCPFWDSWWGKPCRPAIDSA | 0.683 ± 0.74
56 | FCPVHSGISS | -0.578 ± 0.79
57 | FCRETLRTRKAETLGTVNKE | -0.937 ± 0.78
58 | FCREWDRSRQKG | 0.508 ± 0.25
59 | FCRGIHVTSIITTIDWYYSL | 0.36 ± 0.62
60 | FCRLLPSLCTTNLK | -0.663 ± 0.76
61 | FCSHVGLVYCTYIMMRVSMR | 5.501 ± 0.034
62 | FCSSSVIYQKKLA | -0.782 ± 0.24
63 | FCTLCFSLCQ | 1.82 ± 0.23
64 | FCTNSYSFMDGTSCWAELRA | 0.594 ± 0.47
65 | FCVISKGRHVSMRTTSGFLE | -0.834 ± 0.54
66 | FCVLIGGCFFGNSK | 6.157 ± 0.038
67 | FDCGGCKNMGF | -1.74 ± 0.62
68 | FDDRMCLCTIKQSK | -1 ± 0.78
69 | FDHMWLSGQVQWFLNYTTSL | inactive
70 | FDLCCMKYHSYHMQFI | -0.214 ± 1
71 | FDPIRWLLNYIFMASTLYVE | -0.804 ± 0.44
72 | FDRRVDV | -0.076 ± 0.29
73 | FELIFELLLKKCALI | 0.032 ± 0.54
74 | FENIDGWRLFIIARRRAIGG | -1 ± 1
75 | FESRFYHSVLTIVTLFTYPA | -0.025 ± 1.1

Row | Substance | amyloid nucleation score
76 | FFCRG | 3.26 ± 0.084
77 | FFDIVIAERLTVLHVSVVSK | 4.59 ± 0.074
78 | FFEFRCWVMKGFWPLRMKDM | 0.414 ± 0.65
79 | FFFVPSFDTLEHTLRVGLLR | inactive
80 | FFIIGDCGVLSCPAGGQLWS | 7.177 ± 0.037
81 | FFIQLSIPERFTVRVLIRRR | inactive
82 | FFIWLPYRSTTINRISPCWG | -1.94 ± 0.54
83 | FFKISQSTTTEQLVYSCYSS | 3.02 ± 0.095
84 | FFMNNALFRGWG | 2.97 ± 0.15
85 | FFQFTTDSHCND | 0.654 ± 0.8
86 | FFQLSYNIQASSNNLMASVS | inactive
87 | FFVLRHA | -0.513 ± 0.32
88 | FFVMGRSGYSLVALKREKSI | inactive
89 | FFYLRFAQWQLCRTFNAQGM | -0.184 ± 1.1
90 | FFYQVWGNN | 2.26 ± 0.11
91 | FFYSVRVRPALIIC | inactive
92 | FGDWWSI | -1.1 ± 0.63
93 | FGFGRRKSKKWLVDLDPRR | inactive
94 | FGFNCMGWYRDCAVTSTWGA | 0.809 ± 0.31
95 | FGLLWNNQSWLVARVSCSNL | -0.04 ± 0.36
96 | FGMSCWFLFFASQFSVTNNC | -1.51 ± 0.76
97 | FGNRLNFDILTTFVIKRWCM | -0.342 ± 0.76
98 | FGSALFSIILH | 5.607 ± 0.033
99 | FGWGN | 0.09 ± 0.51
100 | FGWVINVNVRPTRFVTEGPV | 6.54 ± 0.073

Row | Substance | amyloid nucleation score
101 | FGYKR | -0.828 ± 0.61
102 | FGYVVVKRPSSMLLRASRDG | -0.619 ± 1
103 | FHGRSATGISRLYLKRGCSG | 0.761 ± 0.47
104 | FHIDTIRTVRLAWYTTEHWQ | 5.34 ± 0.07
105 | FHIFQFVSLGFWSSEG | inactive
106 | FHISYDTSS | -0.35 ± 1.1
107 | FHSRFSMRPDDLWSQNARVW | 0.028 ± 0.79
108 | FHTLRVE | 1.46 ± 0.3
109 | FHVCWERSMLIRV | -0.559 ± 0.76
110 | FHWYGTVVIYVYLLADVYRC | -0.153 ± 0.36
111 | FICPMYESSRIVV | 0.335 ± 0.64
112 | FIFRMHAFNGIRLWCV | 1.38 ± 0.22
113 | FIFVLI | 3.08 ± 0.11
114 | FILRHQFCLRTLIYGPSIFF | 7.465 ± 0.045
115 | FIMSSVCMIRCNITCSHQPS | 8.21 ± 0.035
116 | FIMVQRLSCLVVQISRAGAC | 3.79 ± 0.12
117 | FINRPVKRKLNSSNIYICV | 3.16 ± 0.14
118 | FIRQKGYTVFLVCGNYVWMT | 5.979 ± 0.056
119 | FIRSIHCVKMDELAWLLSVS | 0.252 ± 0.46
120 | FIRWSLWR | -0.012 ± 1.1
121 | FITNHK | inactive
122 | FIYVSWRTWSEIVGMCFGVV | -1 ± 0.45
123 | FKFGPMDSIKYMSANFISQC | -0.189 ± 0.64
124 | FKICGTFDAFKKL | inactive
125 | FKIDNGWYWCRTCGQNKGSS | -0.461 ± 0.56

Row | Substance | amyloid nucleation score
126 | FKNFFSYLLLGVPLIAAITW | -1.67 ± 0.41
127 | FKSLVSMVENDWMS | -0.855 ± 0.44
128 | FLCLLDRVIMTLFFRIAL | 0.453 ± 0.65
129 | FLDGAYSWLWLGSYIRGLSH | -0.262 ± 0.56
130 | FLDWVLSD | inactive
131 | FLGFI | -1.94 ± 1.1
132 | FLLPSYERDSSYVAYF | -0.687 ± 0.79
133 | FLLRHSSCEVIGC | 0.665 ± 0.36
134 | FLNKDGNIV | -0.022 ± 0.55
135 | FLNNVVYRHCDSYLTGNCRN | 5.151 ± 0.041
136 | FLNPFNHREHPRVED | 0.775 ± 0.62
137 | FLNPYNFWLDFWYFLIDSMT | inactive
138 | FLNSWQVGYLSCSSKLVACN | inactive
139 | FLQRSRNMNCLRGHDFNSNG | 0.053 ± 1.1
140 | FLRVRP | -0.719 ± 0.29
141 | FLSEFVRIGPYARS | inactive
142 | FLSLIGKSRS | inactive
143 | FLSVTFFRLIRCMAL | inactive
144 | FLTYRLSNYYTPGKFCVYFK | inactive
145 | FLVLVWSRCSNLFL | 2.86 ± 0.14
146 | FLVVGGT | -0.112 ± 0.21
147 | FMCLHSARNVVMRMDVRVVL | 4.93 ± 0.078
148 | FMGFTISFFVRDFAPDLTKR | 3.1 ± 0.064
149 | FMITQSFSGT | -1.05 ± 0.41
150 | FMLFRRGKNQRFRRLTDYKN | -2.44 ± 1.1

Row | Substance | amyloid nucleation score
151 | FMMTRKGIFELHFISRE | 0.097 ± 1.1
152 | FMRGLMARLCER | 0.293 ± 0.4
153 | FMSGGVVYSLMTGTR | 0.388 ± 0.36
154 | FMTGSFEENS | -0.945 ± 1.1
155 | FNDRHVCHREKFSRELGFCS | -0.479 ± 1
156 | FNFYKWYYIGLTAISFVYTV | -1.51 ± 1
157 | FNIMIWA | inactive
158 | FNIPGHSH | -1.51 ± 0.78
159 | FNLLARMIVYGIVLSQGKTG | -0.01 ± 0.63
160 | FNMTIVDISLYRFMNVLKRP | -0.907 ± 0.78
161 | FNNMWYSFKQSLSACSVGRR | inactive
162 | FNRDK | -0.512 ± 0.76
163 | FNSCDAWYCMNSQVSRTTYL | -0.624 ± 0.41
164 | FNSLGFRLTSCIDRVTLVLW | inactive
165 | FNVEVRV | -0.379 ± 0.45
166 | FPFKCTSQDSFFFNFKWSRR | 3.25 ± 0.17
167 | FPIYFFA | inactive
168 | FPLDIKGKWDVGNMEGKVVE | 0.486 ± 0.41
169 | FPLVWA | 0.416 ± 0.22
170 | FPSCSRGLHFKGLWTWYFPT | -0.388 ± 1.1
171 | FPTIDRQVFDVRR | -1.17 ± 0.41
172 | FRALKMISDPSRHSVLL | -0.02 ± 0.34
173 | FRDANKGCIEKFVVTCDFRM | 0.003 ± 0.38
